Data: paper PMC4826903 (Science (New York, N.Y.), 2015)

Biological target: the molecule itself

B1: Nsp1•Nup49•Nup57 channel nup hetero-trimer (CNT) (complex, Chaetomium thermophilum)
chain 1: MDEIITRWATDLAKYQKEFKEQAAKVMEWDRLLVENGEKIQKLYTSTYEAERASNEIERQLSNVESQQEELTAWLDRYERELDELYAKQMGSAAGEQAAGPDQERERTYKLAEKLTDQLDEMGKDLAKMIKEINDMSNTLSKGSKPDDPLTQIVRVLNGHLAQLQWIDTNAAALQAKVAAAQKAAGSMGANVPGTETDAAESFYRSYR
chain 2: EALQQEIAKIDEEIQKCIRDKEAVDAFLPAHGEQLAAIPTDVNFVTRKSEGAHNALSSDILAIDQLRELVKQDADNARLSFKAIDNLKLPMQYHQAGLWSKQMGGAGTAGASGASADADGQSNADLISYFSKTADEMEEMMKKFEKTITEIEAHLTGVEAHAMAMQNVAAQSRNAAQGGVDERVYELAAVLREFEESILKVAGVVGGVKEGVTELQLRDFMGHGS
chain 3: YQKPIPEQIKLIVDKWNPNHPNCAFKTYLYNKVDEHTVPLYGPGPNEDPKEWEEALQRKPAPNFIPVLCSGFPSIVARLMLQRRVITEFNNKLHQINASLDAILSRHDLDHTVRAFNARRRHAELSRRCLHLAARVQVLRNRGYALSGDEDELKQKLQQIDKTLNDPAQGSRLEELWSRLIVLRGYAEDLKDQINQAGITESDGLGEEIEAKAKKILEDYDKQLQHLKKQVEEAKKDFEEWEKQHN
  stoichiometry N: 2
